The text below walks through data of PMC11480844 (2024).

B1: H2-Kb / Ed10 (parent complex)
chain 1: GEQVEQRPPHLSVREGDSAFIICTYTDSATAYFYWYKQEPGAGLQLLMSVFSNVDRKEEQGLTVLLNKKDKRLSLNLTAAHPGDSAVYFCAVRGTGYQNFYFGKGTSLTVIP
chain 2: AQTIHQWPVAEIKAVGSPLSLGCTIKGKSSPNLYWYWQATGGTLQQLFYSITVGQVESVVQLNLSASRPKDDQFILSTEKLLLSHSGFYLCAWSPGYEQYFGPGTRLTVL
chain 3: not shown
chain 4: IQKTPQIQVYSRHPPENGKPNILNCYVTQFHPPHIEIQMLKNGKKIPKVEMSDMSFSKDWSFYILAHTEFTPTETDTYACRVKHDSMAEPKTVYWDRDM
chain 5: SIINFEKL

The assay covers variants of B1. Nature of the assay: % of reporter cells activated (NFAT-GFP), raw. Note: test concentration or dose not given here.
In the case of chain 5 N4L, the ratio to parent amounted to 0.728. Regarding chain 5 N4V, the ratio to parent was 0.00517. For the variant chain 5 N4K, the ratio to parent turned out to be 0.342.

In the case of chain 5 N4A, the ratio to parent was 0.353.

As for chain 5 N4G, the ratio to parent was 0.0998. The value for chain 5 N4Y was 0.354.

With chain 5 F5Y, the ratio to parent was 1.03.

Turning to chain 5 F5I, the ratio to parent came out at 0.815. Consider chain 5 F5N, for which the ratio to parent amounted to 0.711. For the variant chain 5 F5M, the ratio to parent came out at 0.958.

Take chain 5 F5G: the ratio to parent stood at 0.581.

For chain 5 F5Q, the ratio to parent was 0.879. The value for chain 5 F5H was 0.876. The value for chain 5 F5E was 0.78; that for chain 5 F5R was 0.815; that for chain 5 F5S was 0.764. In the case of chain 5 F5V, the ratio to parent worked out at 0.775. For the variant chain 5 I3A, the ratio to parent came to 0.96. On to chain 5 I3D, for which the ratio to parent came to 0.691. The value for chain 5 I3T was 0.829.

Take chain 5 I3N: the ratio to parent came out at 0.683.

chain 5 I3E: the ratio to parent stood at 0.916.

Regarding chain 5 I3V, the ratio to parent was found to be 0.927. As for chain 5 I3K, the ratio to parent is 0.828. As to chain 5 I3H, the ratio to parent was 0.828. Regarding chain 5 I3Q, the ratio to parent was 0.826.

For the variant chain 5 I3Y, the ratio to parent came out at 0.368. Regarding chain 5 L8F, the ratio to parent turned out to be 0.838. The value for chain 5 L8G was 0.937; that for chain 5 L8D was 0.803. The value for chain 5 L8Q was 0.897; that for chain 5 L8T was 0.81. On to chain 5 L8R, for which the ratio to parent worked out at 0.949. The value for chain 5 L8I was 0.864; that for chain 5 L8C was 0.921; that for chain 5 L8K was 0.88. The value for chain 5 E6R was 0.0435; that for chain 5 E6F was 0.0734. The value for chain 5 E6D was 0.557; that for chain 5 E6P was 0.045; that for chain 5 E6A was 0.0198. Take chain 5 E6H: the ratio to parent worked out at 0.377. For chain 5 E6Y, the ratio to parent was 0.503. The value for chain 5 E6C was 0.00556; that for chain 5 E6K was 0.878.

On to chain 5 E6N, for which the ratio to parent came out at 0.0352.

Take chain 5 E6W: the ratio to parent stood at 0.00924. As to chain 5 S1D, the ratio to parent worked out at 0.938. In the case of chain 5 S1L, the ratio to parent was found to be 0.914.

Regarding chain 5 S1T, the ratio to parent turned out to be 1.01. The value for chain 5 S1Y was 1. The value for chain 5 S1F was 0.726; that for chain 5 S1Q was 0.931. chain 5 S1R: the ratio to parent stood at 0.72. In the case of chain 5 S1A, the ratio to parent came to 0.977. The value for chain 5 K7V was 0.563; that for chain 5 K7F was 0.184. In the case of chain 5 K7M, the ratio to parent was found to be 0.28. chain 5 K7A: the ratio to parent amounted to 0.495. The value for chain 5 K7P was 0.685; that for chain 5 K7W was 0.601. Turning to chain 5 K7L, the ratio to parent came to 0.461. chain 5 K7I: the ratio to parent came out at 0.00197. The value for chain 5 K7T was 0.102; that for chain 5 K7D was 0.355. The value for chain 5 K7C was 0.143; that for chain 5 K7G was 0.79; that for chain 5 I2Y was 0.898. The value for chain 5 I2G was 0.939; that for chain 5 I2C was 0.907; that for chain 5 I2V was 0.962. Regarding chain 5 I2T, the ratio to parent amounted to 1.02. Consider chain 5 I2H, for which the ratio to parent was determined as 0.915.

Turning to chain 5 I2W, the ratio to parent stood at 0.751.

On to chain 5 I2P, for which the ratio to parent stood at 0.973.
